Results from the supplement of paper PMC11908140.

B1: library; numbered along this chain (parent)
chain: MRKPRAAVGSGHRKQAASQEGRQKHAKNNSQAKPSACDGLARQPEEVVLQASVSSYHLFRDVAEVTAFRGSLLSWYDQEKRDLPWRRRAEDEMDLDRRAYAVWVSEVMLQQTQVATVINYYTGWMQKWPTLQDLASASLEEVNQLWAGLGYYSRGRRLQEGARKVVEELGGHMPRTAETLQQLLPGVGRYTAGAIASIAFGQATGVVDGNVARVLCRVRAIGADPSSTLVSQQLWGLAQQLVDPARPGDFNQAAMELGATVCTPQRPLCSQCPVESLCRARQRVEQEQLLASGSLSGSPDVEECAPNTGQCHLCLPPSEPWDQTLGVVNFPRKASRKPPREESSATCVLEQPGALGAQILLVQRPNSGLLAGLWEFPSVTWEPSEQLQRKALLQELQRWAGPLPATHLRHLGEVVHTFSHIKLTYQVYGLALEGQTPVTTVPPGARWLTQEEFHTAAVSTAMKKVFRVYQGQQPGTCMGSKRSQVSSPCSRKKPRMGQQVLDNFFRSHISTDAHSLNSAAQ

Variants of: B1
Assay: 8OG:A repair function score (normalized; synonymous = 0, nonsense = -1) (normalized log-likelihood score); higher = more repair activity (WT-like)
Conditions: with 8OG:A DNA repair reporter (GFP) in HEK-293 MUTYH KO cells
Protocol: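 Saturation mutagenesis (NNN codon scan) of the MUTYH cDNA (521-aa nuclear isoform NM_001048174.1 / NP_001041639), stably expressed under doxycycline induction in HEK-293 MUTYH knockout cells. Cells were co-transfected with an 8OG:A-bearing GFP repair reporter plus mCherry and sorted 72 h later into GFP+ and GFP− bins, three replicates per tile. The Rosace log2 enrichment (GFP+ vs GFP−) was converted per tile to a normalized function score with synonymous variants centered at 0 and nonsense variants (codons 1-471) at -1; low-abundance variants were removed.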
In the case of MRKPRAAVGSGHRKQAASQEGRQKHAKNNSQAKPSACDGLARQPEEVVLQASVSSYHLFRDVAEVTAFRGSLLSWYDQEKRDLPWRRRAEDEMDLDRRAYAVWVSEVMLQQTQVATVINYYTGWMQKWPTLQDLASASLEEVNQLWAGLGYYSRGRRLQEGARKVVEELGGHMPRTAETLQQLLPGVGRYTAGAIASIAFGQATGVVDGNVARVLCRVRAIGADPSSTLVSQQLWGLAQQLVDPARPGDFNQAAMELGATVCTPQRPLCSQCPFESLCRARQRVEQEQLLASGSLSGSPDVEECAPNTGQCHLCLPPSEPWDQTLGVVNFPRKASRKPPREESSATCVLEQPGALGAQILLVQRPNSGLLAGLWEFPSVTWEPSEQLQRKALLQELQRWAGPLPATHLRHLGEVVHTFSHIKLTYQVYGLALEGQTPVTTVPPGARWLTQEEFHTAAVSTAMKKVFRVYQGQQPGTCMGSKRSQVSSPCSRKKPRMGQQVLDNFFRSHISTDAHSLNSAAQ [V274F], the “8OG:A repair function score” value is reported as -0.303. In the case of MRKPRAAVGSGHRKQAASQEGRQKHAKNNSQAKPSACDGLARQPEEVVLQASVSSYHLFRDVAEVTAFRGSLLSWYDQEKRDLPWRRRAEDEMDLDRRAYAVWVSEVMLQQTQVATVINYYTGWMQKWPTLQDLASASLEEVNQLWAGLGYYSRGRRLQEGARKVVEELGGHMPRTAETLQQLLPGVGRYTAGAIASIAFGQATGVVDGNVARVLCRVRAIGADPSSTLVSQQLWGLAQQLVDPARPGDFNQAAMELGATVCTPQRPLCSQCPVESLCRARQRVEQEQLLASGSLSGSPDVEECAPNTGQCHLCLPPSEPWDQTLGVVNFPRKASRKPPREESSATCPLEQPGALGAQILLVQRPNSGLLAGLWEFPSVTWEPSEQLQRKALLQELQRWAGPLPATHLRHLGEVVHTFSHIKLTYQVYGLALEGQTPVTTVPPGARWLTQEEFHTAAVSTAMKKVFRVYQGQQPGTCMGSKRSQVSSPCSRKKPRMGQQVLDNFFRSHISTDAHSLNSAAQ [V348P], the “8OG:A repair function score” value is reported as -1.11. MRKPRAAVGSGHRKQAASQEGRQKHAKNNSQAKPSACDGLARQPEEVVLQASVSSYHLFRDVAEVTAFRGSLLSWYDQEKRDLPWRRRAEDEMDLDRRAYAVWVSEVMLQQTQVATVINYYTGWMQKWPTLQDLASASLEEVNQLWAGLGYYSRGRRLQEGARKVVEELGGHMPRTAETLQQLLPGVGRYTAGAIASIAFGQATGVVDGNVARVLCRVRAIGADPSSTLVSQQLWGLAQQLVDPARPGDFNQAAMELGATVCTPQRPLCSQCPVESLCRARQRVEQEQLLASGSLSGSPDVEECAPNTGQCHLCLPPSEPWDQTLGVVNFPRKASRKPPREESSATCVLEQPGALGAQILLVQRPKSGLLAGLWEFPSVTWEPSEQLQRKALLQELQRWAGPLPATHLRHLGEVVHTFSHIKLTYQVYGLALEGQTPVTTVPPGARWLTQEEFHTAAVSTAMKKVFRVYQGQQPGTCMGSKRSQVSSPCSRKKPRMGQQVLDNFFRSHISTDAHSLNSAAQ [N366K] was tested, and the “8OG:A repair function score” value was -0.0179. With MRKPRAAVGSGHRKQAASQEGRQKHAKNNSQAKPSACDGLARQPEEVVLQASVSSYHLFRDVAEVTAFRGSLLSWYDQEKRDLPWRRRAEDEMDLDRRAYAVWVSEVMLQQTQVATVINYYTGWMQKWPTLQDLASASLEEVNQLWAGLGYYSRGRRLQEGARKVVEELGGHMPRTAETLQQLLPGVGRYTAGAIASIAFGQATGVVDGNVARVLCRVRAIGADPSSTLVSQQLWGLAQQLVDPARPGDFNQAAMELGATVCTPQRPLCSQCPVESLCRARQRVEQEQLLASGSLSGSPDVEECAPNTGQCHLCLPPSEPWDQTLGVVNFYRKASRKPPREESSATCVLEQPGALGAQILLVQRPNSGLLAGLWEFPSVTWEPSEQLQRKALLQELQRWAGPLPATHLRHLGEVVHTFSHIKLTYQVYGLALEGQTPVTTVPPGARWLTQEEFHTAAVSTAMKKVFRVYQGQQPGTCMGSKRSQVSSPCSRKKPRMGQQVLDNFFRSHISTDAHSLNSAAQ [P331Y] the “8OG:A repair function score” value was -0.276. In the case of MRKPRAAVGSGHRKQAASQEGRQKHAKNNSQAKPSACDGLARQPEEVVLQASVSSYHLFRDVAEVTAFRGSLLSWYDQEKRDLPWRRRAEDEMDLDRRAYAVWVSEVMLQQTQVATVINYYTGWMQKWPTLQDLASASLEEVNQLWAGLGYYSRGRRLQEGARKVVEELGGHMPRTAETLQQLLPGVGRYTAGAIASIAFGQATGVVDGNVARVLCRVRAIGADPSSTLVSQQLWGLAQQLVDPARPGDFNQAAMELGATVCTPQRPLCSQCPVESLCRARQRVEQEQLLASGSLSGSPDVEECAPNTGQCHLCLPPSEPWDQTLGVVNFPRKASRKPPREESSATCVLGQPGALGAQILLVQRPNSGLLAGLWEFPSVTWEPSEQLQRKALLQELQRWAGPLPATHLRHLGEVVHTFSHIKLTYQVYGLALEGQTPVTTVPPGARWLTQEEFHTAAVSTAMKKVFRVYQGQQPGTCMGSKRSQVSSPCSRKKPRMGQQVLDNFFRSHISTDAHSLNSAAQ [E350G], the “8OG:A repair function score” value is reported as -0.128. With MRKPRAAVGSGHRKQAASQEGRQKHAKNNSQAKPSACDGLARQPEEVVLQASVSSYHLFRDVAEVTAFRGSLLSWYDQEKRDLPWRRRAEDEMDLDRRAYAVWVSEVMLQQTQVATVINYYTGWMQKWPTLQDLASASLEEVNQLWAGLGYYSRGRRLQEGARKVVEELGGHMPRTAETLQQLLPGVGRYTAGAIASIAFGQATGVVDGNVARVLCRVRAIGADPSSTLVSQQLWGLAQQLVDPARPGDFNQAIMELGATVCTPQRPLCSQCPVESLCRARQRVEQEQLLASGSLSGSPDVEECAPNTGQCHLCLPPSEPWDQTLGVVNFPRKASRKPPREESSATCVLEQPGALGAQILLVQRPNSGLLAGLWEFPSVTWEPSEQLQRKALLQELQRWAGPLPATHLRHLGEVVHTFSHIKLTYQVYGLALEGQTPVTTVPPGARWLTQEEFHTAAVSTAMKKVFRVYQGQQPGTCMGSKRSQVSSPCSRKKPRMGQQVLDNFFRSHISTDAHSLNSAAQ [A254I] the “8OG:A repair function score” value was 0.133.
